Test results reported in the supplement of paper PMC11316812.
± gives the standard deviation of the averaged measurements.

Columns and labels:
[1] = tested on: hTERT-HMEC; assay: percentage of EdU-negative (G0-arrested) nuclei per well, 72 h; higher = more G0 arrest; settings: reference: sequence is the full UniProt precursor, the tested protein was the secreted form or ectodomain
[2] = tested on: MCF7; assay: as above; settings: reference: sequence is the full UniProt precursor, the tested protein was the secreted form or ectodomain
[3] = protein concentration 0.0257143 µM
[4] = protein concentration 0.257143 µM
[5] = protein concentration 0.0225 µM
[6] = protein concentration 0.01625 µM
[7] = protein concentration 0.1625 µM
[8] = protein concentration 0.03125 µM
[9] = protein concentration 0.3125 µM
[10] = protein concentration 0.0173625 µM
[11] = protein concentration 0.173625 µM
[12] = protein concentration 0.0142825 µM
[13] = protein concentration 0.142825 µM
[14] = protein concentration 0.0145 µM
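Note: secreted proteins added to cultured cells, EdU pulse at the end, nuclei found by Hoechst imaging, EdU status from nuclear versus surrounding ring intensity ratio, PBS as neutral control.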

For “MKKSGVLFLLGIILLVLIGVQGTPVVRKGRCSCISTNQGTIHLQSLKDLKQFAPSPSCEKIEIIATLKNGVQTCLNPDSADVKELIKKWEKQVSQKKKQKNGKKHQKKKVLKVRKSQRSRQKKTT”, the “percentage of EdU-negative” value [1, 3] was 4.62 ± 0.47%, the “percentage of EdU-negative” value [1, 4] was 6.18 ± 1.4% and the “percentage of EdU-negative” value [2, 3] was 24.8 ± 0.99%. For the same sequence, the “percentage of EdU-negative” value [2, 4] was 27.7 ± 2.3%.
In the case of “MKLAALLGLCVALSCSSAAAFLVGSAKPVAQPVAALESAAEAGAGTLANPLGTLNPLKLLLSSLGIPVNHLIEGSQKCVAELGPQAVGAVKALKALLGALTVFG [Q96QR1]”, the “percentage of EdU-negative” value [1, 5] is reported as 5.9 ± 0.79%, the “percentage of EdU-negative” value ([1]; protein concentration 0.225 µM) is reported as 5.2 ± 0.81% and the “percentage of EdU-negative” value [2, 5] is reported as 21.8 ± 1.8%. The “percentage of EdU-negative” value ([2]; protein concentration 0.225 µM) was 23.7 ± 1.3%.
“MKLAFLFLGPMALLLLAGYGCVLGASSGNLRTFVGCAVREFTFLAKKPGCRGLRITTDACWGRCETWEKPILEPPYIEAHHRVCTYNETKQVTVKLPNCAPGVDPFYTYPVAIRCDCGACSTATTECETI [Q86YW7]” was tested, and the “percentage of EdU-negative” value [1, 5] was 5.52 ± 0.71%, the “percentage of EdU-negative” value ([1]; protein concentration 0.225 µM) was 5.1 ± 0.082% and the “percentage of EdU-negative” value [2, 5] was 25.3 ± 2.8%. The “percentage of EdU-negative” value ([2]; protein concentration 0.225 µM) was 25.8 ± 1.5%.
“MKLALLLPWACCCLCGSALATGFLYPFSAAALQQHGYPEPGAGSPGSGYASRRHWCHHTVTRTVSCQVQNGSETVVQRVYQSCRWPGPCANLVSYRTLIRPTYRVSYRTVTVLEWRCCPGFTGSNCDEECMNCTRLSDMSERLTTLEAKVLLLEAAERPSSPDNDLPAPESTPPTWNEDFLPDAIPLAHPVPRQRRPTGPAGPPGQTGPPGPAGPPGSKGDRGQTGEKGPAGPPGLLGPPGPRGLPGEMGRPGPPGPPGPAGNPGPSPNSPQGALYSLQPPTDKDNGDSRLASAIVDTVLAGVPGPRGPPGPPGPPGPRGPPGPPGTPGSQGLAGERGTVGPSGEPGVKGEEGEKAATAEGEGVQQLREALKILAERVLILEHMIGIHDPLASPEGGSGQDAALRANLKMKRGGAQPDGVLAALLGPDPGQKSVDQASSRK [Q96A83]” was tested, and the “percentage of EdU-negative” value [1, 6] was 4.63 ± 0.36%, the “percentage of EdU-negative” value [1, 7] was 7.44 ± 3.3% and the “percentage of EdU-negative” value [2, 6] was 26.9 ± 1.4%. The “percentage of EdU-negative” value [2, 7] was 25.1 ± 1.8%.
With “MKLAVTLTLVTLALCCSSASAEICPSFQRVIETLLMDTPSSYEAAMELFSPDQDMREAGAQLKKLVDTLPQKPRESIIKLMEKIAQSSLCN” the “percentage of EdU-negative” value [1, 8] was 4.77 ± 0.77%, the “percentage of EdU-negative” value [1, 9] was 4.91 ± 0.97% and the “percentage of EdU-negative” value [2, 8] was 22.8 ± 2.1%. The “percentage of EdU-negative” value [2, 9] was 24.6 ± 0.57%.
In the case of “MKLCSLAVLVPIVLFCEQHVFAFQSGQVLAALPRTSRQVQVLQNLTTTYEIVLWQPVTADLIVKKKQVHFFVNASDVDNVKAHLNVSGIPCSVLLADVEDLIQQQISNDTVSPRASASYYEQYHSLNEIYSWIEFITERHPDMLTKIHIGSSFEKYPLYVLKVSGKEQAAKNAIWIDCGIHAREWISPAFCLWFIGHITQFYGIIGQYTNLLRLVDFYVMPVVNVDGYDYSWKKNRMWRKNRSFYANNHCIGTDLNRNFASKHWCEEGASSSSCSETYCGLYPESEPEVKAVASFLRRNINQIKAYISMHSYSQHIVFPYSYTRSKSKDHEELSLVASEAVRAIEKISKNTRYTHGHGSETLYLAPGGGDDWIYDLGIKYSFTIELRDTGTYGFLLPERYIKPTCREAFAAVSKIAWHVIRNV [Q96IY4]”, the “percentage of EdU-negative” value [1, 10] is reported as 5.24 ± 0.032%, the “percentage of EdU-negative” value [1, 11] is reported as 5.84 ± 0.41% and the “percentage of EdU-negative” value [2, 10] is reported as 24.7 ± 2.5%. The “percentage of EdU-negative” value [2, 11] was 26.8 ± 0.93%.
In the case of “MKLCVTVLSLLMLVAAFCSPALSAPMGSDPPTACCFSYTARKLPRNFVVDYYETSSLCSQPAVVFQTKRSKQVCADPSESWVQEYVYDLELN”, the “percentage of EdU-negative” value [1, 12] is reported as 5.53 ± 0.77%, the “percentage of EdU-negative” value [1, 13] is reported as 5.12 ± 0.26% and the “percentage of EdU-negative” value [2, 12] is reported as 24.5 ± 1.1%. For the same sequence, the “percentage of EdU-negative” value [2, 13] was 25.7 ± 0.56%.
“MKLCVTVLSLLVLVAAFCSLALSAPMGSDPPTACCFSYTARKLPRNFVVDYYETSSLCSQPAVVFQTKRGKQVCADPSESWVQEYVYDLELN [Q8NHW4]” was tested, and the “percentage of EdU-negative” value [1, 14] was 5.26 ± 0.85%, the “percentage of EdU-negative” value ([1]; protein concentration 0.145 µM) was 6.68 ± 1.3% and the “percentage of EdU-negative” value [2, 14] was 23.4 ± 2%. For the same sequence, the “percentage of EdU-negative” value ([2]; protein concentration 0.145 µM) was 25.62 ± 0.055%.
